Laboratory results as given in US20240075157A1 (MAGENTA THERAPEUTICS, published 2024).

What was measured:
hFcγR3A 176V [1] = molecular target: T1, hFcγR3A 176V (human, UniProt P08637 17-208, tagged with biotin or histidine (which one is not stated for this receptor)); assay: BLI, Bio-hFcR3A 176V
hFcγR2B [2] = molecular target: T2, hFcγR2B (human, UniProt P31994 46-217, tagged with biotin or histidine (which one is not stated for this receptor)); assay: BLI
T2 sequence (looked up): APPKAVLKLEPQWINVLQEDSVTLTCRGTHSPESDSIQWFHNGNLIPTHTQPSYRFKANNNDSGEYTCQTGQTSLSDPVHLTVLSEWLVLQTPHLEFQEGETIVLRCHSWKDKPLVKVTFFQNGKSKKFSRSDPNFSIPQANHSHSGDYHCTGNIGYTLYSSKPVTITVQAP

hFcγR3A 176V [3] = molecular target: T1, hFcγR3A 176V; assay: BLI
hFcγR2B [4] = molecular target: T2, hFcγR2B; assay: BLI, Bio-hFcR2B

T1 sequence (P08637 17-208 F176V limits assumed): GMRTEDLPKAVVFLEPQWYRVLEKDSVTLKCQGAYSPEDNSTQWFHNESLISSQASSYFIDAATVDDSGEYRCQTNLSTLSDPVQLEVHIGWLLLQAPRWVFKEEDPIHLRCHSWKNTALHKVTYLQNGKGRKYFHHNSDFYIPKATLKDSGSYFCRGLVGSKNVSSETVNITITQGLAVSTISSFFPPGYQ

B1: Ab2 D265C N297Q H435A (antibody, human IgG1, kappa, N297Q)
heavy: EVQLVQSGAEVKKPGESLKISCKGSGYSFTNYWIGWVRQMPGKGLEWMAIINPRDSDTRYRPSFQGQVTISADKSISTAYLQWSSLKASDTAMYYCARHGRGYEGYEGAFDIWGQGTLVTVSSASTKGPSVFPLAPSSKSTSGGTAALGCLVKDYFPEPVTVSWNSGALTSGVHTFPAVLQSSGLYSLSSVVTVPSSSLGTQTYICNVNHKPSNTKVDKKVEPKSCDKTHTCPPCPAPELLGGPSVFLFPPKPKDTLMISRTPEVTCVVVCVSHEDPEVKFNWYVDGVEVHNAKTKPREEQYQSTYRVVSVLTVLHQDWLNGKEYKCKVSNKALPAPIEKTISKAKGQPREPQVYTLPPSRDELTKNQVSLTCLVKGFYPSDIAVEWESNGQPENNYKTTPPVLDSDGSFFLYSKLTVDKSRWQQGNVFSCSVMHEALHNAYTQKSLSLSPGK
light: not shown
notes: copies: 2 + 2
Question: Which “Normalized Response” value (hFcγR3A 176V [1]) does the source give for B1 here?
Answer: Its value is 1 % of WT.

Question: Does B1 bind (hFcγR2B [2])?
Answer: Result: no binding (tested: 300 nM)

Question: Does B1 bind (hFcγR3A 176V [3])?
Answer: Result: no binding (tested: 300 nM)

Question: What about the “Normalized Response” value (hFcγR2B [4]) of the same binder?
Answer: Its value is 4 % of WT.
